{
  "source": "patent US20190151346A1",
  "about": "“COMBINATIONS THERAPIES FOR THE TREATMENT OF CANCER” (INSERM (INSTITUTE NATIONAL DE LA SANTÉ ET DE LA RECHERCHE …, priority 2016, published 2019)",
  "molecules": {"B1": {"name": "IL-17E: pro-inflammatory cytokine, product of the human IL-17E gene, also named IL-25 (protein, UniProt Q9H293 33-177, looked up)", "Interleukin-25": "YSHWPSCCPSKGQDTSEELLRWSTVPVPPLEPARPNRHPESCRASEDGPLNSRAISPWRYELDRDLNRLPQDLYHARCLCPHCVSLQTGSHMDPRGNSELLYHNQTVFYRRPCHGEKGTHKGYCLERRLYRVSLACVCVRPRVMG"}, "B2": {"name": "IL-17B: cytokine, product of the human IL-17B gene; ligand of IL-17RB (protein, UniProt Q9UHF5 21-180, looked up)", "Interleukin-17B": "QPRSPKSKRKGQGRPGPLAPGPHQVPLDLVSRMKPYARMEEYERNIEEMVAQLRNSSELAQRKCEVNLQLWMSNKRSLSPWGYSINHDPSRIPVDLPEARCLCLGCVNPFTMQEDRSMVSVPVFSQVPVRRRLCPPPPRTGPCRQRAVMETIAVGCTCIF"}},
  "format_in_all_cases": "cell-based",
  "key": {"EGFR [1]": {"tested_on": "EGFR", "test": "Tyrosine phosphorylation by Western blotting: EGFR phosphorylation in TNBC cell lines", "conditions": "IJG-1731, BT-20 and MDA-MB468; 10 ng/ml; FIG. 1", "protocol": "BT20 and MDA-MB468 triple negative (HER2-, ER-, PR-) were obtained from American Type Culture Collection (ATCC N°HTB19, and ATCC N°HTB132, respectively). […] MDA-MB468 cells were grown in a complete DMEM-F12 media with glutamine, 10% FCS and penicillin—streptomycin. All cells were maintained in a humidified 5% CO2 atmosphere at 37° C. All experiments were conducted with cells at confluency and starved for an overnight.\n(§1) Cells (3×10^5) were seeded in 6-well plates in complete medium for 24 hours then starved for another overnight. Cells were then stimulated with IL-17E (10 ng/ml), EGF (10 ng/ml), or a combination of both for 30 min in serum-free medium. Cells were then lysed in 1% Triton X100 buffer and left on ice for 1 hours. Protein samples were then subjected to 8% SDS-PAGE. Western blotting using specific antibodies assessed then the phosphorylation of the various kinases."}, "STAT3 [2]": {"tested_on": "STAT3", "test": "Cellular fractionation and Western blotting: STAT3 and pSTAT3 translocation to the nucleus", "conditions": "MDA-MB468 fractions", "protocol": "(§2) BT20 and MDA-MB468 triple negative (HER2-, ER-, PR-) were obtained from American Type Culture Collection (ATCC N°HTB19, and ATCC N°HTB132, respectively). The LumB, and Her2-, ER-, PR-negative IJG-1731 cell line was previously established at the laboratory as described (Mombelli et al. Sci Rep. 2015 Jul. 8; 5:11874.) BT20 and IJG-1731 cells were grown in complete RPMI-1640 media with L-glutamine, supplemented with 10% fetal calf serum (FCS) and penicillin—streptomycin solution (100 μg/ml each) (Life technology, Saint-Aubain, France). MDA-MB468 cells were grown in a complete DMEM-F12 media with glutamine, 10% FCS and penicillin—streptomycin. All cells were maintained in a humidified 5% CO2 atmosphere at 37° C. All experiments were conducted with cells at confluency and starved for an overnight.\n(§3) Cells (3×10^5) were seeded in 6-well plates in complete medium for 24 hours then starved for another overnight. Cells were stimulated for 2 hours at 37° C. with IL-17E (10 ng/ml), EGF (long/ml), or a combination of both as indicated. Cells were then washed with PBS and lysed in a lysis buffer (HEPES 10 mM, MgCl2 15 mM KCl 10 mM, DTT 0.5 mM, PMSF 0.2 mM, 1 mM Na3VO4, 10 mM NaF, 0.5% Nonidet P-40). […] Protein concentrations were determined by using Bradford method. […]"}, "Src": {"tested_on": "Src", "test": "Tyrosine phosphorylation by Western blotting: Src phosphorylation in TNBC cell lines", "protocol": "as §2, §1"}, "PYK-2": {"tested_on": "PYK-2", "test": "Tyrosine phosphorylation by Western blotting: PYK-2 phosphorylation in TNBC cell lines", "conditions": "three cell lines; 10 ng/ml; FIG. 1", "protocol": "as §2, §1"}, "EGFR [3]": {"tested_on": "EGFR", "test": "Cellular fractionation and Western blotting: EGFR and pY1086EGFR translocation to the nucleus", "conditions": "MDA-MB468 cytoplasmic and nuclear fractions; FIG. 4A", "protocol": "as §2, §3"}, "STAT3 [4]": {"tested_on": "STAT3", "test": "Tyrosine phosphorylation by Western blotting: STAT3 phosphorylation in TNBC cell lines", "conditions": "10 ng/ml", "protocol": "as §2, §1"}, "EGFR [5]": {"tested_on": "EGFR", "test": "Immunofluorescence microscopy: localization of EGFR", "conditions": "MDA-MB468; 10 ng/ml, 2 hours; FIG. 4A, FIG. 7", "protocol": "as §2\nCells (4.10^3) were grown on Lab-Tek chambers slide in their respective complete culture medium for 24 hours then starved for an overnight. Cells were then stimulated with IL-17E (long/ml), EGF (10 ng/ml) or a combination of both for 2 hours at 37° C., washed, and fixed with 4% paraformaldehyde (PFA)-PBS solution at 4° C. […] Slides were mounted with mounting medium containing Dapi then visualized with a Leica DMRB fluorescence microscope and images analysis was performed with the Archimed Software (Microvision)."}},
  "data": [
    {"molecule": "B1", "values": [
      {"measurement": "intensity of induced EGFR phosphorylation", "setting": "EGFR [1]", "value": "comparable to that induced by EGF"},
      {"measurement": "phosphorylation of STAT3α and β", "setting": "STAT3 [2]", "value": "induced the phosphorylation"},
      {"measurement": "phosphorylation of Src at Y416 at suboptimal concentrations", "setting": "Src; MDA-MB468, IL-17E 1 ng/ml alone or EGF 0.1-1 ng/ml alone, FIG. 3", "value": "failed to induce any significant phosphorylation"},
      {"measurement": "phosphorylation of Src at Y416", "setting": "Src; three cell lines, 10 ng/ml, FIG. 1", "value": "induced the phosphorylation"},
      {"measurement": "phosphorylation of PYK2 at Y402", "setting": "PYK-2", "value": "induced the phosphorylation"},
      {"measurement": "translocation of non-phosphorylated EGFR form to the nucleus", "setting": "EGFR [3]", "value": "fairly translocate"},
      {"measurement": "translocation of phosphorylated EGFR (pY1086EGFR) to the nucleus", "setting": "EGFR [3]", "value": "failed to induce its significant translocation to the nucleus"},
      {"measurement": "phosphorylation of STAT3-α and -β at Y705", "setting": "STAT3 [4]; IJG-1731 and BT20 cell lines, FIGS. 1A and B", "value": "induced considerable phosphorylation"},
      {"measurement": "phosphorylation of STAT3-α and -β", "setting": "STAT3 [4]; MDA-MB468 cell line", "value": "less evident"},
      {"measurement": "translocation of EGFR (immunofluorescence)", "setting": "EGFR [5]", "value": "induced the translocation of EGFR to the nucleus but to a lower extends compared to EGF"}
    ]},
    {"molecule": "B2", "values": [
      {"measurement": "translocation of EGFR (immunofluorescence)", "setting": "EGFR [5]", "value": "induced a translocation from the membrane to cytoplasm with a strong perinuclear reorganization"}
    ]}
  ]
}
